{
  "source": "patent US20120252691",
  "about": "“MODIFIED NUCLEOTIDES METHODS AND KITS” (Pierce Biotechnology, Inc., published 2012)",
  "molecular_target": "PABPC1-GST (Poly(A) binding protein) (UniProt P11940 P11940:1-636)",
  "sequence (P11940 whole entry, one chain of several)": "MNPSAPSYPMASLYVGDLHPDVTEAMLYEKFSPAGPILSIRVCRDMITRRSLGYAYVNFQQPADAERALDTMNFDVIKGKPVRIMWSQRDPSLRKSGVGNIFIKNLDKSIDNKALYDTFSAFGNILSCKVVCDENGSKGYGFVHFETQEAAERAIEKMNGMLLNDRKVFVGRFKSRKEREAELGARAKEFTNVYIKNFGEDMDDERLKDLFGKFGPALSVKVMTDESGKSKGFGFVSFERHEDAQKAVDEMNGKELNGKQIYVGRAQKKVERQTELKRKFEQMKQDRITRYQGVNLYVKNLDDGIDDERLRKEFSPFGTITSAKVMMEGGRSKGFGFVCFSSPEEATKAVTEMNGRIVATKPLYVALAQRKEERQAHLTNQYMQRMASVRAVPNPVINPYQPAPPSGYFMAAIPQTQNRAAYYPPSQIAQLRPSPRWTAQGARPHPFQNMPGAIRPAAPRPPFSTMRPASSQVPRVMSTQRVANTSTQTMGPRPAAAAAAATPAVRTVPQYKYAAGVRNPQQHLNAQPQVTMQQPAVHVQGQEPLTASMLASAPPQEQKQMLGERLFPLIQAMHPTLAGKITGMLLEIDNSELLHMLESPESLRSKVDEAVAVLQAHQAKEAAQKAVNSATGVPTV",
  "assay": "pulldown; 10 mM Tris pH 7.5, 2.5 mM MgCl2, 10 mM KCl, 15% glycerol, tRNA, 4 C; also with UV crosslinking (FIG. 17)",
  "details": "tags: GST; label: 3'-biotin-PEG12-alkane-cytidine",
  "description": "Poly(A)₂₅ RNA was labeled using biotin-PEG₁₂-alkane-3′5′-bisphosphate cytidine and T4 RNA ligase. The Poly(A) Binding Protein (PABP), which binds the poly(A) tracts of mRNA, was cloned into a vector containing a GST-tag and expressed in a human cell-free in vitro translation (IVT) system. The lysate was diluted 1:10 for use in the binding reaction. The labeled RNA (50 pmol) was incubated with streptavidin magnetic beads (0.5 mg) for thirty minutes in 20 mM Tris-HCl (7.5), 100 mM NaCl, 1 mM EDTA. After washing, the beads were then incubated with 2-3 μl of diluted IVT lysate cell lysate in Binding Buffer (10 mM Tris-HCl, pH 7.5, 2.5 mM MgCl₂, 10 mM KCl, 15% glycerol, 0.5% Tween-20, and 10 μg tRNA) for one hour at 4° C. An unrelated RNA was used as a negative control, and beads were incubated with lysate alone to assess background. […] After separation by electrophoresis, PABP was detected using PABP antibody.\nSynthetic RNA (50 pmol/reaction) was end-labeled using a twenty-fold excess of Biotin-PEG₁₂-Alkane-3′5′-Bisphosphate Cytidine with T4 RNA ligase. […] Normalized samples were separated by electrophoresis, transferred, and detected using PABPC1, GST (SNRPA1) antibodies (1:1000 dilution in TBST-0.5% BSA). […]",
  "data": [
    {"binder": "AAAAAAAAAAAAAAAAAAAAAAAAA (ssRNA)", "note": "[Poly(A)25 RNA, biotin-PEG12]", "values": [
      {"measurement": "binding result", "value": "binds"}
    ]}
  ]
}
